From patent EP4810521A1, “ANTI-EGFR AND -HER3 BISPECIFIC ANTIBODY-DRUG CONJUGATE AND USE THEREOF” (priority 2023, dated 2025)

Legend:
[1] = test system: NUGC-4 tumor-bearing mouse model; test: Anti-tumor effect in NUGC-4 tumor-bearing mouse model; assay type: in vivo, BALB/c-NUDE mice; details: NUGC-4, 10 mg/kg single dose intraperitoneal injection, day 32
From the text: In the present experiment, the BALB/c NUDE mice inoculated with NUGC-4 cells were used for determining the anti-tumor effect of the EGFR/HER3-ADCs.
The female BALB/c-NUDE mice were purchased from Beijing Vital River Laboratory Animal Technology Co., Ltd, with the grade of SPF, the quality control department is Beijing Vital River Laboratory Animal Technology Co., Ltd, and the certificate number was NO.110011230103807533. The mice were domesticated for 3 days after arrival, and then the study began.
NUGC-4 cells were purchased from NIBIOHN (CAT #: JCRB0834) and routinely subcultured in strict accordance with the instructions for subsequent in vivo experiments. The cells were collected by centrifugation, resuspended in sterile PBS and adjusted to a cell density of 20×10^6 cells/ml. A NUGC-4 tumor-bearing mouse model was established by subcutaneous inoculation of 0.2 ml of cell suspension into the right abdominal region of BALB/c-NUDE mice on day 0.
Tumor volume of each mouse was measured 13 days after tumor cell inoculation, the mice with tumor volumes about 200 mm^3 were selected and grouped on average according to their tumor volume (7 mice per group). […] Administrations were conducted on day 13 after inoculation respectively, and the tumor volume and body weight of mice were monitored twice a week. […] Measurement of tumor volume: the maximum long axis (L) and maximum wide axis (W) of the tumor were measured using a vernier caliper, and the tumor volume was calculated as follows: V=L×W^2/2. Body weight was measured using an electronic balance. Table 3. Experimental design

human EGFR = target: T1, human EGFR (human, UniProt P00533 25-645, limits assumed); test: ELISA, EGFR antigen coated on plate, anti-human IgG Fc-HRP detection
T1 construct: Coated at 0.25 ug/mL; also called EGFR antigen

human HER3 = target: T2, human HER3 (human, UniProt P21860 20-643, limits assumed); test: ELISA, HER3 antigen coated on plate, anti-human IgG Fc-HRP detection
T2 construct: Coated at 0.25 ug/mL; also called HER3 antigen; ErbB3

[2] = test system: human breast cancer cells MCF7; test: In vitro cell killing assay (CTG); assay type: cell-based
Protocol: After 2-3 passages of the resurrected MCF7 cells, the culture medium was poured out firstly, rinsed with 10 mL PBS once, then the cells were digested with 4mL trypsin, the culture medium was terminated before centrifuged at 400xg for 3min, the supernatant was discarded, and the culture medium was further resuspended for counting. The cell density was adjusted to 3E4/mL, 50 µL of which per well was added into a round bottom low adsorption 96-well plate. The antibody to be detected was diluted in a gradient manner, then 50 µL of which per well was added into the corresponding cells, cultured at 37 °C for 5 days, then the 96-well plate was taken out, the plate was balanced to room temperature, 100 µL of CTG detection solution was added into each well, placed at a shaker at 300 rpm for 20 min, 100 µL of which was absorbed and placed into the white bottom 96-well plate, and the luminescence value was detected by using a multifunctional microplate reader.

[3] = test system: human breast cancer cells MDA-MB-453; test: In vitro cell killing assay (CTG); assay type: cell-based; details: MDA-MB-453, 5 days, Example 13

Molecule: Patritumab-DXd [reference compound]
- TGI [1]: 51%
- Tumor volume [1]: 636 mm^3

B1: Duligo-LC1-NT3 (bispecific antibody, human IgG1, lambda, L234A L235A, V domains shown)
VH: EVQLVESGGGLVQPGGSLRLSCAASGFTLSGDWIHWVRQAPGKGLEWVGEISAAGGYTDYADSVKGRFTISADTSKNTAYLQMNSLRAEDTAVYYCARESRVSFEAAMDYWGQGTLVTVSS
VL: DIQMTQSPSSLSASVGDRVTITCRASQNIATDVAWYQQKPGKAPKLLIYSASFLYSGVPSRFSGSGSGTDFTLTISSLQPEDFATYYCQQSEPEPYTFGQGTKVEIKG
notes: also called Duoligo-LC1-NT3; duoligo-LC1-NT3
- Kd (human EGFR): 0.0352 nM
- fold decrease in Kd against SIB001-DXd (human EGFR): ~2.5 fold
- Kd (human HER3): 0.0257 nM

B2: Duligo-DXd (conjugate, chains of the INN, looked up)
VH: EVQLVESGGGLVQPGGSLRLSCAASGFTLSGDWIHWVRQAPGKGLEWVGEISAAGGYTDYADSVKGRFTISADTSKNTAYLQMNSLRAEDTAVYYCARESRVSFEAAMDYWGQGTLVTVSS
VL: DIQMTQSPSSLSASVGDRVTITCRASQNIATDVAWYQQKPGKAPKLLIYSASFLYSGVPSRFSGSGSGTDFTLTISSLQPEDFATYYCQQSEPEPYTFGQGTKVEIK
modifications: DXd payload
- IC50 ([2]; MCF7, 5 days): 0.049 nM
- reduction in IC50 ([2]; MCF7, relative to SIB001-DXd): approximately 250 fold
- TGI [1]: 75%
- Tumor volume [1]: 414 mm^3
- killing effect [3]: significantly stronger killing effect than SIB001-DXd
